This note sets out measurements from patent publication CN117700556A (SUZHOU ABCARTA MEDICAL TECH CO LTD; XIANGYA HOSPITAL …, dated 2024).

The target of one assay is T1, FRα抗原(SEQ ID NO:1)合成多肽.
T1 construct: KLH-coupled for immunisation; also called FRα的多肽
T1 peptide: RIAWARTELLNV
Description: ELISA screening of hybridoma clones on the SEQ ID NO:1 peptide.

In assay [1] the target is T2, 叶酸受体α(Folate receptor alpha，FRα) (human, UniProt P15328 25-234).
T2 construct: whole, on cells; also called FRα蛋白
Description: immunohistochemistry on FFPE ovarian and breast cancer tissue, antibody at 0.5 μg/mL.

T2 sequence (P15328 25-234): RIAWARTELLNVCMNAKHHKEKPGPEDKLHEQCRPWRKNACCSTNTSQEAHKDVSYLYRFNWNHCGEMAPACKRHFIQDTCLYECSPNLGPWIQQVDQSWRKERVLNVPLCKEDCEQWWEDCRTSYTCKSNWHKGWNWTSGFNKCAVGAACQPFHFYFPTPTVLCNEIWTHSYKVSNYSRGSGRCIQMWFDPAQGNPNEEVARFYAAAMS

B1: 436I6G8抗FRα小鼠单克隆抗体 (antibody, V domains shown)
VH: EVQLQQSGVELVRSGASVKVSCTPSGFNIKDYFINWVKQRPEQGLEWIGWIDPENGDTEYAPKFQGKATMTADTSSNTAYLQLSSLTSEDTAVYYCYAERVVYWGQGTLITVSA
VL: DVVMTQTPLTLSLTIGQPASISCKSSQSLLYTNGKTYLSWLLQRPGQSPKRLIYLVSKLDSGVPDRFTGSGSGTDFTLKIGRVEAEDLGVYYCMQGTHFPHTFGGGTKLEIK
notes: Variable regions were cloned into InvivoGen pFUSE-CHIg-mG1 and pFUSE2-CLIg-mK (mouse IgG1 heavy, mouse kappa light constant regions); also called 436I6G8克隆的FRα小鼠单克隆抗体; 436I6G8抗FRα单克隆抗体
On to B1, for which the binding result (with FRα抗原(SEQ ID NO:1)合成多肽; in assay [1]) was “binds” in each case.
